Data: the supplement of paper PMC7125110
± gives the standard error. This sample holds only a part of the variants without activity.

B1: glmS ribozyme (parent)
chain: AUAAAAGCGCCAGAACUACAGAAAUGUAGUUGACGAGGAGGAGGUUUAUCGAAUUUUCGGCGGAUGCCUCCAAA

Tests used:
Conditions in all cases: with glucosamine-6-phosphate
glucosamine-6-phosphate [1] = variants of: B1; assay: self-cleavage kobs at 40 uM GlcN6P; higher = faster cleavage; RNA array
How it was run: (§1)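 Glucosamine-6-phosphate in HEPES/KCl/Mg(OAc)2 buffer, at 40 μM to 10 mM, was flowed over barcoded ribozyme variants transcribed in situ by E. coli RNA polymerase on sequenced MiSeq chips. Tracking was through a hybridised Cy3 probe at 37 °C. kobs, kcat and KM came from exponential decay fits and weighted Michaelis–Menten fits of normalised per-tile medians.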

glucosamine-6-phosphate [2] = variants of: B1; assay: self-cleavage kobs at 640 uM GlcN6P; higher = faster cleavage; RNA array
How it was run: as §1

glucosamine-6-phosphate [3] = variants of: B1; assay: self-cleavage kobs at 2500 uM GlcN6P; higher = faster cleavage; RNA array
How it was run: as §1

glucosamine-6-phosphate [4] = variants of: B1; assay: self-cleavage kobs at 10000 uM GlcN6P; higher = faster cleavage; RNA array
How it was run: as §1

glucosamine-6-phosphate [5] = variants of: B1; assay: self-cleavage kobs at 160 uM GlcN6P; higher = faster cleavage; RNA array
How it was run: as §1

Row | Variant | self-cleavage kobs at 40 uM GlcN6P (glucosamine-6-phosphate [1]) | self-cleavage kobs at 640 uM GlcN6P (glucosamine-6-phosphate [2]) | self-cleavage kobs at 2500 uM GlcN6P (glucosamine-6-phosphate [3]) | self-cleavage kobs at 10000 uM GlcN6P (glucosamine-6-phosphate [4]) | self-cleavage kobs at 160 uM GlcN6P (glucosamine-6-phosphate [5])
1 | A15G C50G C70U | 5.62e-05 ± 1.6e-05 s⁻¹ | 0.000167 ± 3.8e-05 s⁻¹ | 0.00023 ± 5.9e-05 s⁻¹ | 4.88e-05 ± 1.3e-05 s⁻¹ | 
2 | A36G A39U C68U | < 1e-05 s⁻¹ |  |  | < 1e-05 s⁻¹ | 
3 | A6G C71A | < 1e-05 s⁻¹ |  |  |  | < 1e-05 s⁻¹
4 | C8G U55A | < 1e-05 s⁻¹ | < 1e-05 s⁻¹ | < 1e-05 s⁻¹ | < 1e-05 s⁻¹ | 
5 | G7U U31C C68G | 0.000102 ± 3.2e-05 s⁻¹ |  |  |  | 
6 | C50G U56G C61A | 8.29e-05 ± 2e-05 s⁻¹ | 0.000426 ± 0.00014 s⁻¹ | 0.00021 ± 4.8e-05 s⁻¹ | 6.89e-05 ± 1.6e-05 s⁻¹ | 
7 | G38U U45G C67U | < 1e-05 s⁻¹ |  |  | < 1e-05 s⁻¹ | 
8 | G41U C50A | < 1e-05 s⁻¹ | < 1e-05 s⁻¹ | < 1e-05 s⁻¹ | < 1e-05 s⁻¹ | < 1e-05 s⁻¹
9 | G40A C61A | < 1e-05 s⁻¹ | < 1e-05 s⁻¹ |  |  | < 1e-05 s⁻¹
10 | A6C G7U A12U A15U | < 1e-05 s⁻¹ |  |  | < 1e-05 s⁻¹ | 
11 | A33U A42U U65G | < 1e-05 s⁻¹ |  |  | < 1e-05 s⁻¹ | 
12 | G29C U30C | < 1e-05 s⁻¹ | < 1e-05 s⁻¹ |  |  | 
13 | G40U G63U | < 1e-05 s⁻¹ |  |  | < 1e-05 s⁻¹ | < 1e-05 s⁻¹
14 | C8U G41A | < 1e-05 s⁻¹ | < 1e-05 s⁻¹ | < 1e-05 s⁻¹ | < 1e-05 s⁻¹ | < 1e-05 s⁻¹
15 | C50G C68A | 7.16e-05 ± 9.2e-06 s⁻¹ | 0.000137 ± 2.4e-05 s⁻¹ | 0.000116 ± 2.1e-05 s⁻¹ | 7.83e-05 ± 8.2e-06 s⁻¹ | 0.000228 ± 3.1e-05 s⁻¹
16 | U46A G60C | < 1e-05 s⁻¹ | < 1e-05 s⁻¹ | < 1e-05 s⁻¹ | < 1e-05 s⁻¹ | < 1e-05 s⁻¹
17 | U55G C71G | 7.4e-05 ± 1.7e-05 s⁻¹ |  | 0.000704 ± 0.00019 s⁻¹ | 0.00121 ± 0.00035 s⁻¹ | 
18 | C68G | 1.18e-05 ± 2.8e-06 s⁻¹ | 0.000523 ± 0.00014 s⁻¹ | 9.11e-05 ± 1.8e-06 s⁻¹ | 0.000473 ± 9.9e-05 s⁻¹ | 
19 | G7C C10A G29U A64C | < 1e-05 s⁻¹ |  | < 1e-05 s⁻¹ | < 1e-05 s⁻¹ | 
20 | A33G C50A A53C G60C | < 1e-05 s⁻¹ |  |  |  | 
